Test system: (His)6PemI

PemK(His)6
cleavage of mazG mRNA (native PAGE of digestion products): the addition of PemI inhibited the cleavage of mazG mRNA in a dose-dependent manner
